In PMC9482650, “Quantitative fragmentomics allow affinity mapping of interactomes” (Nature Communications, 2022):

T1: NHERF3_3, Q5T2W1
T1 sequence (Q5T2W1 238-333, limits assumed, looked up): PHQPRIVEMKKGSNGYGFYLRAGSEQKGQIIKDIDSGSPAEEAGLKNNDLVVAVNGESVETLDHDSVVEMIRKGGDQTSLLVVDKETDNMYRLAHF

T2: NHERF3_1, Q5T2W1
T2 sequence (Q5T2W1 4-100, limits assumed, looked up): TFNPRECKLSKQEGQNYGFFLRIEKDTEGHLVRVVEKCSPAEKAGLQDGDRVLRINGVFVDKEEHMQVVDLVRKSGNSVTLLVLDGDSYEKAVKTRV

T3: SNTG2, Q9NY99
T3 sequence (Q9NY99 68-166, limits assumed, looked up): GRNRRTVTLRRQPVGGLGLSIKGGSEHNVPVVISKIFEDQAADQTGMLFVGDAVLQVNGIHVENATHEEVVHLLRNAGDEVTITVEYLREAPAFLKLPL

T4: MPP6, Q9NZW5
T4 sequence (Q9NZW5 125-219, limits assumed, looked up): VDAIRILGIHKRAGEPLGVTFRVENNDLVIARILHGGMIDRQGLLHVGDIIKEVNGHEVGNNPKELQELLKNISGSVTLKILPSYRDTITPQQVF

T5: SNTG1, Q9NSN8
T5 sequence (Q9NSN8 52-150, limits assumed, looked up): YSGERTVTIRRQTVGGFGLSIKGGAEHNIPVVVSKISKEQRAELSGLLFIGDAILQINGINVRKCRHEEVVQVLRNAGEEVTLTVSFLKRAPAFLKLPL

T6: APBA1_2, Q02410
T6 sequence (Q02410 742-832, limits assumed, looked up): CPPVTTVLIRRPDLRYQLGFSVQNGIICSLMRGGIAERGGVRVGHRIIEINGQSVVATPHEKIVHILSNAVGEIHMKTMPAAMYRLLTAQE

T7: CARD11, Q9BXL7
T7 sequence (Q9BXL7 662-765, limits assumed, looked up): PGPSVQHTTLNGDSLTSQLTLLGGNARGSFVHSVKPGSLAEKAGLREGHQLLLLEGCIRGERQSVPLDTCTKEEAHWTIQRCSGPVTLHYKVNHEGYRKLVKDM

T8: LRRC7, Q96NW7
T8 sequence (Q96NW7 1440-1537, limits assumed, looked up): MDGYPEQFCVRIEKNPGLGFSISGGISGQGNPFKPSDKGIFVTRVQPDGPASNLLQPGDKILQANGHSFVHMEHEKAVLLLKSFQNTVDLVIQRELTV

T9: PARD3B_1, Q8TEW8
T9 sequence (Q8TEW8 196-299, limits assumed, looked up): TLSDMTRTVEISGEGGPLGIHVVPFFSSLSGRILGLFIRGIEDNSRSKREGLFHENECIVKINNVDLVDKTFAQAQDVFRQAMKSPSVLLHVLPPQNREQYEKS

B1: CD46, P15529 (peptide)
chain: THREVKFTSL

Molecular target: DLG2_2, Q15700
Assay: holdup assay
Design: key: below the threshold = too weak to quantify, mostly under pKd 3.1 to 4
Settings: plain residues with an end cap or a label only (N-terminal biotin on a linker: ado-ado)

Sequence of DLG2_2, Q15700 (Q15700 189-283): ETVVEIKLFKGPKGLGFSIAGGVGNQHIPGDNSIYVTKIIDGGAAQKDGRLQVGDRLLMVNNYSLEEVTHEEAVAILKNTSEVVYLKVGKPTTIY

Row | pKd | Binder
1 | 3.57 | B1

Molecular target: T1, NHERF3_3, Q5T2W1
Assay: holdup assay
Design: key: below the threshold = too weak to quantify, mostly under pKd 3.1 to 4
Settings: plain residues with an end cap or a label only (N-terminal biotin on a linker: ado-ado)

Row | pKd | Binder
2 | below the threshold | B1

Molecular target: T2, NHERF3_1, Q5T2W1
Assay: holdup assay
Design: key: below the threshold = too weak to quantify, mostly under pKd 3.1 to 4
Settings: plain residues with an end cap or a label only (N-terminal biotin on a linker: ado-ado)

Row | pKd | Binder
3 | 5.18 | B1

Molecular target: PTPN3, P26045
Assay: holdup assay
Design: key: below the threshold = too weak to quantify, mostly under pKd 3.1 to 4
Settings: plain residues with an end cap or a label only (N-terminal biotin on a linker: ado-ado)

Sequence of PTPN3, P26045 (P26045 505-587): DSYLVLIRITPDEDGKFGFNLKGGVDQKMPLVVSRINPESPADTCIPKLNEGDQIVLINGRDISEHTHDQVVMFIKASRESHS

Row | pKd | Binder
4 | 4.83 | B1

Molecular target: T3, SNTG2, Q9NY99
Assay: holdup assay
Design: key: below the threshold = too weak to quantify, mostly under pKd 3.1 to 4
Settings: plain residues with an end cap or a label only (N-terminal biotin on a linker: ado-ado)

Row | pKd | Binder
5 | 4.05 | B1

Molecular target: SCRIB_1, Q14160
Assay: holdup assay
Design: key: below the threshold = too weak to quantify, mostly under pKd 3.1 to 4
Settings: plain residues with an end cap or a label only (N-terminal biotin on a linker: ado-ado)

Sequence of SCRIB_1, Q14160 (Q14160 718-814): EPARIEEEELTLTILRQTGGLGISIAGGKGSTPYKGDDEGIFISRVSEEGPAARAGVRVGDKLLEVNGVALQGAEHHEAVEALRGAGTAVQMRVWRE

Row | pKd | Binder
6 | 4.95 | B1

Molecular target: LDB3, O75112
Assay: holdup assay
Design: key: below the threshold = too weak to quantify, mostly under pKd 3.1 to 4
Settings: plain residues with an end cap or a label only (N-terminal biotin on a linker: ado-ado)

Sequence of LDB3, O75112 (O75112 1-94): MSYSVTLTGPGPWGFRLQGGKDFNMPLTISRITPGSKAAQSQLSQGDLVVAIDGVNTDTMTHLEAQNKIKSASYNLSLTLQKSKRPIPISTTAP

Row | pKd | Binder
7 | below the threshold | B1

Molecular target: AHNAK1, Q09666
Assay: holdup assay
Design: key: below the threshold = too weak to quantify, mostly under pKd 3.1 to 4
Settings: plain residues with an end cap or a label only (N-terminal biotin on a linker: ado-ado)

Sequence of AHNAK1, Q09666 (Q09666 4-100): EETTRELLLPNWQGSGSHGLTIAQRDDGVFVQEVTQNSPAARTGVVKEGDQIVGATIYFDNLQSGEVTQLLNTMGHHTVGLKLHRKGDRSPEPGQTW

Row | pKd | Binder
8 | below the threshold | B1

Molecular target: IL16_4, Q14005
Assay: holdup assay
Design: key: below the threshold = too weak to quantify, mostly under pKd 3.1 to 4
Settings: plain residues with an end cap or a label only (N-terminal biotin on a linker: ado-ado)

Sequence of IL16_4, Q14005 (Q14005 1229-1329): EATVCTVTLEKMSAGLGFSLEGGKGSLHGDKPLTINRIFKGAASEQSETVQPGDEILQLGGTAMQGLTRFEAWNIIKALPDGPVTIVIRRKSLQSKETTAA

Row | pKd | Binder
9 | 3.88 | B1

Molecular target: MAGI2_3, Q86UL8
Assay: holdup assay
Design: key: below the threshold = too weak to quantify, mostly under pKd 3.1 to 4
Settings: plain residues with an end cap or a label only (N-terminal biotin on a linker: ado-ado)

Sequence of MAGI2_3, Q86UL8 (Q86UL8 600-682): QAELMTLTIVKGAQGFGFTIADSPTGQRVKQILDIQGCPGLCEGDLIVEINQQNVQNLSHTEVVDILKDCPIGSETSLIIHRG

Row | pKd | Binder
10 | below the threshold | B1

Molecular target: T4, MPP6, Q9NZW5
Assay: holdup assay
Design: key: below the threshold = too weak to quantify, mostly under pKd 3.1 to 4
Settings: plain residues with an end cap or a label only (N-terminal biotin on a linker: ado-ado)

Row | pKd | Binder
11 | below the threshold | B1

Molecular target: T5, SNTG1, Q9NSN8
Assay: holdup assay
Design: key: below the threshold = too weak to quantify, mostly under pKd 3.1 to 4
Settings: plain residues with an end cap or a label only (N-terminal biotin on a linker: ado-ado)

Row | pKd | Binder
12 | below the threshold | B1

Molecular target: Inadl_3, Q8NI35
Assay: holdup assay
Design: key: below the threshold = too weak to quantify, mostly under pKd 3.1 to 4
Settings: plain residues with an end cap or a label only (N-terminal biotin on a linker: ado-ado)

Sequence of Inadl_3, Q8NI35 (Q8NI35 359-469): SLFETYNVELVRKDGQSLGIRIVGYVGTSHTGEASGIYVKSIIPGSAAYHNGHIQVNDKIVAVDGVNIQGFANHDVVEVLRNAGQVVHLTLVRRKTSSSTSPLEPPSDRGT

Row | pKd | Binder
13 | below the threshold | B1

Molecular target: T6, APBA1_2, Q02410
Assay: holdup assay
Design: key: below the threshold = too weak to quantify, mostly under pKd 3.1 to 4
Settings: plain residues with an end cap or a label only (N-terminal biotin on a linker: ado-ado)

Row | pKd | Binder
14 | 3.64 | B1

Molecular target: IL16_1, Q14005
Assay: holdup assay
Design: key: below the threshold = too weak to quantify, mostly under pKd 3.1 to 4
Settings: plain residues with an end cap or a label only (N-terminal biotin on a linker: ado-ado)

Sequence of IL16_1, Q14005 (Q14005 210-306): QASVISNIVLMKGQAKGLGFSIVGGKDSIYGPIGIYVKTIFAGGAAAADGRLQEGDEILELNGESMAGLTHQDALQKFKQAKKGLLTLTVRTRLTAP

Row | pKd | Binder
15 | below the threshold | B1

Molecular target: LIMK2, P53671
Assay: holdup assay
Design: key: below the threshold = too weak to quantify, mostly under pKd 3.1 to 4
Settings: plain residues with an end cap or a label only (N-terminal biotin on a linker: ado-ado)

Sequence of LIMK2, P53671 (P53671 143-248): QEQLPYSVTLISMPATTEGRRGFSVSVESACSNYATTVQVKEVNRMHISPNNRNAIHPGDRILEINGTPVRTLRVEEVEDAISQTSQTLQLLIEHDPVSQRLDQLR

Row | pKd | Binder
16 | below the threshold | B1

Molecular target: NHERF4_4, Q86UT5
Assay: holdup assay
Design: key: below the threshold = too weak to quantify, mostly under pKd 3.1 to 4
Settings: plain residues with an end cap or a label only (N-terminal biotin on a linker: ado-ado)

Sequence of NHERF4_4, Q86UT5 (Q86UT5 464-550): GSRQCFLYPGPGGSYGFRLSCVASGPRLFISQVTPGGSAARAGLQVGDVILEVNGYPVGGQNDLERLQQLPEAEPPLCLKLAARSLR

Row | pKd | Binder
17 | below the threshold | B1

Molecular target: DLG1_3, Q12959
Assay: holdup assay
Design: key: below the threshold = too weak to quantify, mostly under pKd 3.1 to 4
Settings: plain residues with an end cap or a label only (N-terminal biotin on a linker: ado-ado)

Sequence of DLG1_3, Q12959 (Q12959 457-571): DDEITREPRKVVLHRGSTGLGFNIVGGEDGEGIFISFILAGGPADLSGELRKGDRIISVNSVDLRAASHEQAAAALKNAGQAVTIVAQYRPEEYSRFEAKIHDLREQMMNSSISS

Row | pKd | Binder
18 | 3.75 | B1

Molecular target: T7, CARD11, Q9BXL7
Assay: holdup assay
Design: key: below the threshold = too weak to quantify, mostly under pKd 3.1 to 4
Settings: plain residues with an end cap or a label only (N-terminal biotin on a linker: ado-ado)

Row | pKd | Binder
19 | below the threshold | B1

Molecular target: DLG5_1, Q8TDM6
Assay: holdup assay
Design: key: below the threshold = too weak to quantify, mostly under pKd 3.1 to 4
Settings: plain residues with an end cap or a label only (N-terminal biotin on a linker: ado-ado)

Sequence of DLG5_1, Q8TDM6 (Q8TDM6 617-713): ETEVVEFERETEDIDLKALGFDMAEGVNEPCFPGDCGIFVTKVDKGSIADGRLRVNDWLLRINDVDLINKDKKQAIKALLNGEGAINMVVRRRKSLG

Row | pKd | Binder
20 | below the threshold | B1

Molecular target: PICK1, Q9NRD5
Assay: holdup assay
Design: key: below the threshold = too weak to quantify, mostly under pKd 3.1 to 4
Settings: plain residues with an end cap or a label only (N-terminal biotin on a linker: ado-ado)

Sequence of PICK1, Q9NRD5 (Q9NRD5 17-115): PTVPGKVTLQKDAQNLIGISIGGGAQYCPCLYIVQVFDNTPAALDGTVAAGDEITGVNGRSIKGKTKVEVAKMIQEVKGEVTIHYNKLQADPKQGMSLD

Row | pKd | Binder
21 | 4.08 | B1

Molecular target: SCRIB_3, Q14160
Assay: holdup assay
Design: key: below the threshold = too weak to quantify, mostly under pKd 3.1 to 4
Settings: plain residues with an end cap or a label only (N-terminal biotin on a linker: ado-ado)

Sequence of SCRIB_3, Q14160 (Q14160 999-1103): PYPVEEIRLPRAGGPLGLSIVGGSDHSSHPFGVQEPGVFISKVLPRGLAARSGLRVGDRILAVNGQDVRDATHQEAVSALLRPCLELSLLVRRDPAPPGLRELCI

Row | pKd | Binder
22 | 4.8 | B1

Molecular target: GRASP, Q7Z6J2
Assay: holdup assay
Design: key: below the threshold = too weak to quantify, mostly under pKd 3.1 to 4
Settings: plain residues with an end cap or a label only (N-terminal biotin on a linker: ado-ado)

Sequence of GRASP, Q7Z6J2 (Q7Z6J2 96-193): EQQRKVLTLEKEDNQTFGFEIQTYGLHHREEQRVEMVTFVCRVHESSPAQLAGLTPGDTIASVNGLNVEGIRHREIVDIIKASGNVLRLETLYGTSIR

Row | pKd | Binder
23 | 4.77 | B1

Molecular target: GRIP2_6, Q9C0E4
Assay: holdup assay
Design: key: below the threshold = too weak to quantify, mostly under pKd 3.1 to 4
Settings: plain residues with an end cap or a label only (N-terminal biotin on a linker: ado-ado)

Sequence of GRIP2_6, Q9C0E4 (Q9C0E4 648-740): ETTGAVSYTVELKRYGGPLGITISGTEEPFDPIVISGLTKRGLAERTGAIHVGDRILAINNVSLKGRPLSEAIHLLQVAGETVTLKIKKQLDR

Row | pKd | Binder
24 | 3.98 | B1

Molecular target: T8, LRRC7, Q96NW7
Assay: holdup assay
Design: key: below the threshold = too weak to quantify, mostly under pKd 3.1 to 4
Settings: plain residues with an end cap or a label only (N-terminal biotin on a linker: ado-ado)

Row | pKd | Binder
25 | below the threshold | B1

Molecular target: T9, PARD3B_1, Q8TEW8
Assay: holdup assay
Design: key: below the threshold = too weak to quantify, mostly under pKd 3.1 to 4
Settings: plain residues with an end cap or a label only (N-terminal biotin on a linker: ado-ado)

Row | pKd | Binder
26 | 4.24 | B1

Molecular target: TJP1_3, Q07157
Assay: holdup assay
Design: key: below the threshold = too weak to quantify, mostly under pKd 3.1 to 4
Settings: plain residues with an end cap or a label only (N-terminal biotin on a linker: ado-ado)

Sequence of TJP1_3, Q07157 (Q07157 416-512): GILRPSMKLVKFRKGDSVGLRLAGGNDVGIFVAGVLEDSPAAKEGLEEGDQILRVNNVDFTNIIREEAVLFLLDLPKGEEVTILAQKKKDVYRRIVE

Row | pKd | Binder
27 | below the threshold | B1

Molecular target: LNX1_1, Q8TBB1
Assay: holdup assay
Design: key: below the threshold = too weak to quantify, mostly under pKd 3.1 to 4
Settings: plain residues with an end cap or a label only (N-terminal biotin on a linker: ado-ado)

Sequence of LNX1_1, Q8TBB1 (Q8TBB1 261-371): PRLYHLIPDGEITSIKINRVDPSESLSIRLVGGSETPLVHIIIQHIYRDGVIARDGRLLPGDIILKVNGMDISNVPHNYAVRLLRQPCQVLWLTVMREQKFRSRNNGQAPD

Row | pKd | Binder
28 | 3.5 | B1
